Measured values reported in patent US20100273710 (published 2010).
Where two headings read alike, the source gives them in different places.

Key:
NOP receptor [1] = target: T1, NOP receptor (Homo sapiens, UniProt P41146); assay: competition, [3H]N/OFQ
NOP receptor [2] = target: T1, NOP receptor; assay: competition, [3H]N/OFQ; remark: listed apart in the source
DOP receptor = target: T2, DOP receptor (Homo sapiens, UniProt P41143); assay: competition, [3H]-diprenorphine
T2 chain: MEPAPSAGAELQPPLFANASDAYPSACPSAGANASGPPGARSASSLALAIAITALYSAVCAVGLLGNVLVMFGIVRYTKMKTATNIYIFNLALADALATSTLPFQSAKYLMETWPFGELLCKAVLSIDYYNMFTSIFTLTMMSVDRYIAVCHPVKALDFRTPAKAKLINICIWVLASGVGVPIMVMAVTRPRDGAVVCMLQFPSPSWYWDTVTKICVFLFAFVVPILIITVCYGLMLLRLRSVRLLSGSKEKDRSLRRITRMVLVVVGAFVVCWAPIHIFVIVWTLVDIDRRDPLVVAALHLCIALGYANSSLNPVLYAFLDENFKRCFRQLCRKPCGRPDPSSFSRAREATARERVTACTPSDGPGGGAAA

MOP receptor = MOP receptor (Homo sapiens, UniProt P35372); assay: competition, [3H]-diprenorphine
Sequence of MOP receptor (P35372 whole entry): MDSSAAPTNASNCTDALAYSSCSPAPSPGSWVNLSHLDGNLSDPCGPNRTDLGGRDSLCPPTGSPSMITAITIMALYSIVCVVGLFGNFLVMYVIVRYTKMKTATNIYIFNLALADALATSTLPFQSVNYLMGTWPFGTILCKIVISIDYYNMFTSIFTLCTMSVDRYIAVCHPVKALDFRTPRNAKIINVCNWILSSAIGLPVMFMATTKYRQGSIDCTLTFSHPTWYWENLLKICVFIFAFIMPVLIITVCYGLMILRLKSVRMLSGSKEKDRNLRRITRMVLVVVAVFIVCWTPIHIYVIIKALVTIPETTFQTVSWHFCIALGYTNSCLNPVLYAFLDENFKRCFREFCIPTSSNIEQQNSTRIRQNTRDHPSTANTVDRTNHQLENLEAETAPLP

T1 sequence (P41146 whole entry): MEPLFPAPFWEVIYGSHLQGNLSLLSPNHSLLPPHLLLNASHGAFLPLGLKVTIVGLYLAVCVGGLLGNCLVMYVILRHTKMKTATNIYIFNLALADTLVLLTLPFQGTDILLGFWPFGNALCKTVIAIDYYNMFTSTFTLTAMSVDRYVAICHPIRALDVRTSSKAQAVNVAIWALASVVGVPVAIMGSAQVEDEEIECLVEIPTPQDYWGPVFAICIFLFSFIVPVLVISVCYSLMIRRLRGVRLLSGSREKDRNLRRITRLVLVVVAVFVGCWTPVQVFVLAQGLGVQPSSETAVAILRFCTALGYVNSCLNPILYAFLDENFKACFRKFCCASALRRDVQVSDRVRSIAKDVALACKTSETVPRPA

B1: UFP-111 (peptide)
chain: XGGFTGXRKSARKRKNQ
modifications: [Nphe1,Aib7,Arg14,Lys15]N/OFQ-NH2; X1 = Nphe, X7 = Aib, C-terminal amide
Binder B1 has a Ki (NOP receptor [1]) of 17.8 nM, a Ki (NOP receptor [2]) of 0.178 nM and a Ki (DOP receptor) of over 10000 nM. The Ki (MOP receptor) was over 10000 nM.
